Test results as given in US7884067B2, “Peptides derived from cadherin and methods of use thereof” (Mount Sinai School of Medicine of New York University, priority 2001, dated 2011).

B1: N-Cad/CTF2: chicken cytoplasmic domain of N-cadherin (N-Cad/CTF2) inserted into vector pECE, expressed in L cells (protein)
chain: KRRDKERQAKQLLIDPEDDVRDNILKYDEEGGGEEDQDYDLSQLQQPDTVEPDAIKPVGIRRLDERPIHAEPQYPVRSAAPHPGDIGDFINEGLKAADNDPTAPPYDSLLVFDYEGSGSTAGSLSSLNSSSSGGEQDYDYLNDWGPRFKKLADMYGGGDD

What was measured:
N-cadherin [1] = experiment: N-cadherin processing in fibroblast cultures (Western blot, C32); format: cell-based, mouse; conditions: WT fibroblasts, L-685,458 (0.5 μM), 16 hours
Experimental: Extracts from PS1+/+ or PS1−/− mouse embryos were probed on WBs with either anti-cytoplasmic N-cadherin antibody (FIG. 7A, upper panel) or anti-PS I/CTF antibody 33B10 (FIG. 7A, lower panel). Extracts from PS1+/+ or PS1−/− fibroblast cultures were incubated for 16 hours in the absence or presence of DMSO, L-685,458 (0.5 μM) and probed on WBs with either C32 or 33B10 antibodies.

N-cadherin [2] = experiment: In vitro ε-cleavage assay, membranes from embryonic fibroblast cultures (WT / PS1 P264L knock-in study); format: biochemical, mouse; conditions: FIG. 13A lanes 1 and 2
Experimental: In vitro γ-secretase-like ε-cleavage assay. Cells were washed in PBS, resuspended in 1 ml of 4° C. hypotonic buffer (10 mM MOPS, pH 7.0, 10 mM KCl) and homogenized on ice. A post-nuclear supernatant was prepared by centrifugation at 1000×g for 15 minutes at 4° C. Crude membranes were isolated from the post-nuclear supernatant by centrifugation at 16,000×g for 40 minutes at 4° C. The membranes were then resuspended in […] of assay buffer (150 mM sodium citrate, pH 6.4, 1× Complete protease inhibitor cocktail), and incubated at 37° C. for 2 hours. Samples were either analyzed directly by WB or separated into pellet (P100) and supernatant (S100) fractions by ultracentrifugation for 1 hour at 100,000×g at 4° C. The S100 and P100 fractions were then analyzed by WB.
To investigate the consequences of FAD mutations in a physiologically relevant system in the absence of PS1 overexpression, the ε-cleavage of N-cadherin was examined in two independent embryonic fibroblast clones derived from a gene-targeted (knock-in) mouse homozygous for the human PS1 FAD mutation P264L (Siman et al. (2000) J. Neurosci. 20:8717-8726). Expression of the knock-in mutant PS1 allele is under the control of the endogenous PS1 gene. These models are distinct from overexpressing transgenic models because the mutant gene is expressed at normal levels, similar to those observed in WT models (FIG. 13, panel d). […]

c-fos = c-fos mRNA (RT-PCR) and protein (Western blot) in L cells; format: cell-based
Experimental: Reverse Transcriptase (RT)-PCR Analysis. Total RNA was extracted from cells using a RNeasy Mini Kit (Qiagen) according to instructions by the manufacturer. Analysis of gene expression was performed using semiquantitative RT-PCR. The following primers were used: 5′-[…]-3′ (SEQ ID NO: 13) and 5′-[…]-3′ (SEQ ID NO: 14) for c-fos; 5′-[…]-3′ (SEQ ID NO: 15) and 5′-[…]-3′ (SEQ ID NO: 16) for gapdh.
Semi-quantitative RT-PCR was used to determine relative levels of c-fos or gapdh mRNAs from L cells transfected either with vector (vector) or with 0.5 mg of pN-Cad/CTF2 (N-Cad/CTF2). The graph in FIG. 9C represents the relative abundance of c-fos-specific PCR products following quantitation of the mRNA signals shown in the upper panel.
Extracts from L cells transfected with increasing amount of pN-Cad/CTF2 were probed on WBs with anti-c-fos (FIG. 9D, upper panel), anti-β-tubulin (FIG. 9D, middle panel) or C32 (FIG. 9D, lower panel) antibodies. Bars in lower panel represent the relative amounts of c-fos protein detected on WBs shown in the upper panel.

Molecule	40 kDa peptide N-Cad/CTF1 (N-cadherin [1])	production of N-Cad/CTF2 (N-cadherin [2])	cellular c-fos mRNA (c-fos; 0.5 mg of pN-Cad/CTF2, vs vector, FIG. 9C)	c-fos protein (c-fos; increasing amount of pN-Cad/CTF2, FIG. 9D)	levels of β-tubulin (c-fos; pN-Cad/CTF2, FIG. 9D)	expression of gapdh mRNA (c-fos; pN-Cad/CTF2 vs vector, FIG. 9C)
CC(C)C[C@H](NC(=O)[C@H](Cc1ccccc1)C[C@@H](O)[C@H](Cc1ccccc1)NC(=O)OC(C)(C)C)C(=O)N[C@@H](Cc1ccccc1)C(N)=O [L-685,458]	accumulates	sensitive				
B1			markedly reduces	markedly reduces	no effect	no effect
